Laboratory results from patent US20250034594A1, “RNA-GUIDED GENOME RECOMBINEERING AT KILOBASE SCALE” (THE BOARD OF TRUSTEES OF THE LELAND STANFORD JUNIOR …, priority 2021, published 2025).

B1: SSAP_227: SEQ ID NO: 396; Streptococcus parauberis (protein, listed as Streptococcus parauberis)
chain: ANQLTVVNTLQSDAVKEKFEAVMGEKANGFVSSVLSVVTNNNILSKADFNSVYTSAMKAAVLDLPVEPSLGMAHIVPYKGKAQFQIGYKGLIQLALRSGQVVGLNAGKVYEGQFKSFNALTEKLDIVDIYNPKKDEPIVGYFAYMKLSNGFEKTTYWTKEQVEEHGKKYSQSYDSKFSPWQTNFDAMARKTVLKSILSTYAPLTIEMQNANDFDNGKNTGIEPLEVKDVTPETDNESLLTDLLEDEPSVNTETGEIIEDTELDLDYGQINAK
B2: SSAP_28: SEQ ID NO: 197 (protein)
chain: AITPNPIPAQDGSPIPSPDDIVGELARRKIYAGIPDDDVALALALCQKYGFDPLLKHLVLLATKDRDETTGQGQKHYNAYVTRDGLLHVAHTSGMLDGLETIQGKDDLGEWAEAVVYRKDMSRPFRYRVYLSEYVREAKGVWKTHPQAMLTKTAEVFALRRAFDVALTPFEEMGFDNQNIAGDTGPSPKTGFTEKAGFTGNTDFSAEASLPGKARFSTEAGLTDMTVIPPNRVTGSIPETSRLNTSAGSTGRQRRQLF
B3: SSAP_62: SEQ ID NO: 231 (protein)
chain: SEISKAVATQQNPLAVVARYKRELGTVLPTVLRQDPDRWLMAAENAARKNPDIMAVTKADQGASYMRALVECARLGHEPGSKDFHFIKRGNAISGEESYRGIIKRVLNSGFYRSVVARTVFSNDTYSFDPLTDIVPNHVPAQGDRGKPLSAYAFAVHWDGTPSTVAEATPERIATAKAKSFASDKPTSPWQLPTGVMYRKTAIRELEPYVHVAPEPQPRRHLDGTVGGIPATDFDVDDGDVLDITADQLAEAGEIV
B4: SSAP_259: SEQ ID NO: 428; Virgibacillus chiguensis (protein, listed as Virgibacillus chiguensis)
chain: ATNSSLKNQIANKGNGNQNTPQGYTVKQLMSASSVKNRFEETLGKKAPQFMASVINLVNGDTNLQKCDQMSVVSSAMVAAALDLPIDKNLGYAWVVPYGNKATFQMGYKGYIQLALRTGQYKNINVIEVYEGEVKSFNRLTEEIELEFEGKESDKVIGYVGYFELINGFRKTVYWSKDEIERHKKRFSKTGFAWKDNYDAMAKKTVIRNMLNKWGILSIDMQTAVTTDGNAVTQDFEQEDSGLVIDAEFSEVNEASEGQQEIKFENADA
B5: SSAP_176: SEQ ID NO: 345; Absicoccus porci (protein, listed as Absicoccus porci)
chain: TTTNQQGMITKKANNSVAKKTNRTMKDYITMYQGEIAKALPSVMTPERFVRIATTAVTNTPKLASCTPQSFIGALLNAAQLGLEPNTPLGQAYLIPYGNQCQFQIGYLGMVELAQRAGTNVDAHVVYANDEFDYSLGLHPDIKHVPAMKDRGEAIAYYAVWHNGENFGFEVMSREDVEKHMKKYSKTYSNGPWKTEFDEMAKKTVLKRALKYAPKKTDLARAVMQDETIKQFNPKADNDMADAKNDFFDVEYDEVDENTDPVTGEVK
B6: SSAP_170: SEQ ID NO: 339; Dorea longicatena (protein, listed as Dorea longicatena)
chain: TVGKTDEIKQELARKVENTKAGTKLKKSMSIADMIKVMEPQIKKALPEVITPERFTRMALSALNTTPKLNECTPMSFLAALMNAAQLGLEPNTPLGQAFLIPYNNKGKMECQFQLGYKGLIDLSYRNPNMQIITAHTVYENDEFEYELGLNPCLDHRPTLGERGEIRLFYGLFKLTNGGFGFEVMSKTAMDDFAKEYSKAFDSSFSPWRTNYESMALKTIIKKALKYAPLKSEFRNALSTDETIKNEIGADMSEINSENIFDTVYQEECA
B7: SSAP_258: SEQ ID NO: 427; Clostridium thermopalmarium (protein, listed as Clostridium thermopalmarium)
chain: ATVNELKNEIATKKETGVGSAGNTIKGLINSPAIKKRFEDVLNKKAPQYMSSIVNLVNGDTNLKKCDQMSVIASCMVAATLDLPIDKNLGYAWIVPYGNRAQFQLGYKGYVQLALRTGQYKAINVIEVHEGELIEWNPLTEELKIDFSQKKSDAIIGYAGYFELLNGFKKSTYWTKEQIIRHKNKFSKSDFGWKKDFDAMAKKTVLRNMLSKWGILSIEMQNAYTADQATIRPEAVETGDIKGNVDYVEADFEENYEGTPFEEVEEGGVNE
B8: SSAP_74: SEQ ID NO: 243 (protein)
chain: SNPPLAQADLQKTQGTEVKTKTKDQQLIHFINQPSMKAQLAAALPRHMTPDRMIRIVTTEIRKTPALANCDMQSFIGAVVQCSQLGLEPGNALGHAYLLPFGNGKAKSGQSNVQLIIGYRGMIDLARRSNQIISISARTVRQGDSFHFEYGLNENLTHVPGENEDSPITHVYAVARLKDGGVQFEVMTHNQIEKVRASSKAGQNGPWVSHWEEMAKKTVIRRLFKYLPVSIEMQKAVILDEKAEANVDQENASVFEGEFEEVSQSA
B9: SSAP_27: SEQ ID NO: 196 (protein)
chain: SNNQLSTQQAKRDIAIDTSVWTFQDVKRYFDPQNLLTEKQVGQALSLIKGRNLNPLANEVYIVAYKKKTGGTEFSLIVSKEAFLKRAAQNPNYEGFEAGVVTVDTDGVMHERKGALMLPGDTLVGGWARVYRKNFKVPVEIFVSREEYDKKQSTWNAMPATMIRKTALVNALREAFPEDLGNMYTEDDGGETFDRIKQAEPVESREDVMARKMAQIEQMKQEQAQRQIDTSYPTDDVIDPDDEPAQGELLEDLEY

Key:
Assay type in all cases: cell-based
gene editing with Cas9 = assay: Screen of 322 new SSAP proteins, gene editing activity with Cas9 (Table 5); set-up: Cas9 with SSAP activity: scale not given here
Method in brief: (§1)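 First, 322 new single-strand annealing proteins are identified from sequences. Next they are synthesized. Finally each is assayed for editing in combination with Cas9 and, separately, dCas9.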

gene editing with dCas9 = assay: Screen of 322 new SSAP proteins, gene editing activity with dCas9 (Table 5); set-up: dCas9 with SSAP activity: scale not given here
Method in brief: as §1

[1] = system: gene editing with Cas9 and dCas9; assay: Screen of 322 new SSAP proteins, activity across all experiments (Cas9 and dCas9, Table 5); set-up: scale not given here
Method in brief: as §1

| Molecule | Cas9 with SSAP activity (gene editing with Cas9) | Cas9 with SSAP activity (normalized) (gene editing with Cas9) | dCas9 with SSAP activity (gene editing with dCas9) | dCas9 with SSAP activity (normalized) (gene editing with dCas9) | Activity across all experiments [1] |
| --- | --- | --- | --- | --- | --- |
| B1 | −0.330 | −0.310 | −4.819 | −0.774 | −2.575 |
| B2 | 0.503 | 0.506 | −4.957 | −0.886 | −2.227 |
| B3 | −2.135 | −1.289 | −4.940 | −0.604 | −3.538 |
| B4 | −2.773 | −0.529 | −4.841 | −1.414 | −3.807 |
| B5 | 1.105 | 2.418 | −4.682 | −0.680 | −1.789 |
| B6 | 2.314 | 1.852 | −4.682 | −0.968 | −1.184 |
| B7 | −3.280 | −0.553 | −4.748 | −0.956 | −4.014 |
| B8 | 0.893 | 0.751 | 0.668 | 0.984 | 0.781 |
| B9 | −2.642 | −0.956 | −4.680 | −0.675 | −3.661 |
